The results in this text go back to patent publication US20210363262A1 (AIMED BIO, published 2021).

Substitutions are numbered along the chain they refer to.

Assay [1] addresses c-Met on cancer cell lines (Caki-1 renal cell carcinoma; MKN45 c-Met-amplified gastric cancer) (UniProt P08581). In words: cell-based or functional assay.
Assay [2] addresses c-Met on cancer cell lines (Caki-1 renal cell carcinoma; MKN45 c-Met-amplified gastric cancer) (UniProt P08581 25-1390). Nature of the assay: cell-based or functional assay.

Sequence of c-Met on cancer cell lines (Caki-1 renal cell carcinoma; MKN45 c-Met-amplified gastric cancer) (UniProt P08581 25-1390) (P08581 25-1390): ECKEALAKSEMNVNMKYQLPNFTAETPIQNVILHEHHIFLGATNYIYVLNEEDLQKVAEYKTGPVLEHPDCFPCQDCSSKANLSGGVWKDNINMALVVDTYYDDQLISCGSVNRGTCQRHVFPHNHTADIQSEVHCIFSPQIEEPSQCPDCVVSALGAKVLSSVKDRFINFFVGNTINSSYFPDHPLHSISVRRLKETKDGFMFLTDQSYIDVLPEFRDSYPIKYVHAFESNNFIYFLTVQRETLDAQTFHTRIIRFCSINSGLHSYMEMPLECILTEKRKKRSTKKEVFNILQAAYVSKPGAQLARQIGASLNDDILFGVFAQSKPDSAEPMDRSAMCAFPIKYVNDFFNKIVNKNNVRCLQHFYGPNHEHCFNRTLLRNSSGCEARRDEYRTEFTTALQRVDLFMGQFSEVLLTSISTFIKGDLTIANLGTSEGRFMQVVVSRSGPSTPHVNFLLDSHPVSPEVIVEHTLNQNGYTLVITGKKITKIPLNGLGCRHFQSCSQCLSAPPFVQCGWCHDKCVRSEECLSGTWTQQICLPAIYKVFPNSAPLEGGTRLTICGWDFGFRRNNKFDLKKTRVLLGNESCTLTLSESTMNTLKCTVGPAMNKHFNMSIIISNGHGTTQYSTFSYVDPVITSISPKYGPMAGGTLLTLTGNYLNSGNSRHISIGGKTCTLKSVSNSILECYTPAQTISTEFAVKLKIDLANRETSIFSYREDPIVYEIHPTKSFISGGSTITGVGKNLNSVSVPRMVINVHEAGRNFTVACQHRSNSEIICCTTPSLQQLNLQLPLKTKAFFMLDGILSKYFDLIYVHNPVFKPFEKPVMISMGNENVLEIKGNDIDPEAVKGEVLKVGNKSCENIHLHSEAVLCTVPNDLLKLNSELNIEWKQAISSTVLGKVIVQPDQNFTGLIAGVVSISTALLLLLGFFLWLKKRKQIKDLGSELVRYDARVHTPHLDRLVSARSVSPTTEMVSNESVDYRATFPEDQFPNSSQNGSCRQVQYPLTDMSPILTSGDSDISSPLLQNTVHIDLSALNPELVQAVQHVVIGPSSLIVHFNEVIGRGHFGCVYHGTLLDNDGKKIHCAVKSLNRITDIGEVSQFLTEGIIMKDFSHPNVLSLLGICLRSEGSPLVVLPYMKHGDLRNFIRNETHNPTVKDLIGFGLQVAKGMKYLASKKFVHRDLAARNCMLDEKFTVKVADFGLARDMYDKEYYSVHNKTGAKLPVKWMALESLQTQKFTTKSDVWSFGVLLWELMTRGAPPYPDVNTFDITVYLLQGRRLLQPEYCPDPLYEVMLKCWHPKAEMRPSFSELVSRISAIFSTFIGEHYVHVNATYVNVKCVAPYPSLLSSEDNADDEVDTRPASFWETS
Sequence of c-Met on cancer cell lines (Caki-1 renal cell carcinoma; MKN45 c-Met-amplified gastric cancer) (UniProt P08581) (P08581 25-1390): as above

Take “Onartuzumab (OA-5D5; monovalent c-Met antibody, Genentech)”: in assay [1], the agonist activity: Akt phosphorylation in Caki-1 cells, Mean (%) (PBS = 0%, HGF/SF = 100%) turned out to be 30.5%.
The same measure, in the same setting: the result for 5D5, c-Met agonist antibody reads 86%; that for “c-Met ligand HGF/SF (R&D systems) (from UniProt P14210 32-728)”, 100%.

B1: 1F12 (parent antibody), full-length human IgG1 (antibody, V domains shown)
VH: EVQLLESGGGLVQPGGSLRLSCAASGFTFSNYAMSWVRQAPGKGLEWVSGISYSGGSTYYADSVKGRFTISRDNSKNTLYLQMNSLRAEDTAVYYCAKASRSCQRPACSYANGMDVWGQGTLVTVSS
VL: QSVLTQPPSASGTPGQRVTISCTGSSSNIGNNYVTWYQQLPGTAPKLLIYYNNHRPSGVPDRFSGSKSGTSASLAISGLQSEDEADYYCGSWDYSLSAYVFGGGTKLTVL
B1: in assay [2], the “agonist activity: Akt phosphorylation in Caki-1 cells, Mean (%) (PBS = 0%, HGF/SF = 100%)” value (shortened to “agonist activity … (PBS = 0%, HGF/SF = 100%)”) was 18.2%.

B2: 1F12_L51D, full-length human IgG1 (antibody, V domains shown)
VH: B1 VH
VL: B1 VL with N52D
Regarding B2, the “agonist activity … (PBS = 0%, HGF/SF = 100%)” value in assay [2] turned out to be 42.5%.

B3: 1F12_L96D, full-length human IgG1 (antibody, V domains shown)
VH: B1 VH
VL: B1 VL with Y99D
On to B3, for which the “agonist activity … (PBS = 0%, HGF/SF = 100%)” value in assay [2] was determined as 21.2%.

B4: 1F12_H53D, full-length human IgG1 (antibody, V domains shown)
VH: B1 VH with S54D
VL: B1 VL
In the case of B4, the “agonist activity … (PBS = 0%, HGF/SF = 100%)” value in assay [2] is 24.5%.

B5: 1F12_L27bD, full-length human IgG1 (antibody, V domains shown)
VH: B1 VH
VL: B1 VL with N28D
Consider B5, for which the “agonist activity … (PBS = 0%, HGF/SF = 100%)” value in assay [2] was found to be 30.3%.

B6: 1F12_H58D, full-length human IgG1 (antibody, V domains shown)
VH: B1 VH with Y59D
VL: B1 VL
Take B6: the “agonist activity … (PBS = 0%, HGF/SF = 100%)” value in assay [2] worked out at 21.5%.

B7: 1F12_H60N, full-length human IgG1 (antibody, V domains shown)
VH: B1 VH with A61N
VL: B1 VL
On to B7, for which the “agonist activity … (PBS = 0%, HGF/SF = 100%)” value in assay [2] stood at 27.7%.

B8: 1F12_H35H, full-length human IgG1 (antibody, V domains shown)
VH: B1 VH with S35H
VL: B1 VL
Take B8: in assay [2], the “agonist activity … (PBS = 0%, HGF/SF = 100%)” value amounted to 17.3%.

B9: 1F12_L26D, full-length human IgG1 (antibody, V domains shown)
VH: B1 VH
VL: B1 VL with S25D
As for B9, the “agonist activity … (PBS = 0%, HGF/SF = 100%)” value in assay [2] is 38.1%.

B10: 1F12_H57K, full-length human IgG1 (antibody, V domains shown)
VH: B1 VH with T58K
VL: B1 VL
For the molecule B10, the “agonist activity … (PBS = 0%, HGF/SF = 100%)” value in assay [2] was found to be 26.8%.

B11: 1F12_H100eH, full-length human IgG1 (antibody, V domains shown)
VH: B1 VH with S109H
VL: B1 VL
For B11, the “agonist activity … (PBS = 0%, HGF/SF = 100%)” value in assay [2] is 27.5%.

B12: 1F12_L95aR, full-length human IgG1 (antibody, V domains shown)
VH: B1 VH
VL: B1 VL with S97R
Turning to B12, the “agonist activity … (PBS = 0%, HGF/SF = 100%)” value in assay [2] came to 29.5%.

B13: 1F12_L50E, full-length human IgG1 (antibody, V domains shown)
VH: B1 VH
VL: B1 VL with Y51E
For the molecule B13, in assay [2], the “agonist activity … (PBS = 0%, HGF/SF = 100%)” value is 37.2%.

B14: 1F12_H6L5, full-length human IgG1 (antibody, V domains shown)
VH: B1 VH with S109H
VL: B1 VL with S97R
On to B14, for which, in assay [2], the “agonist activity … (PBS = 0%, HGF/SF = 100%)” value was 18.2%.

B15: 1F12_H3L5, full-length human IgG1 (antibody, V domains shown)
VH: B1 VH with T58K
VL: B1 VL with S97R
With B15, in assay [2], the “agonist activity … (PBS = 0%, HGF/SF = 100%)” value is 18.9%.

B16: 1F12_H2L6, full-length human IgG1 (antibody, V domains shown)
VH: B1 VH with S54D
VL: B1 VL with Y99D
Regarding B16, in assay [2], the “agonist activity … (PBS = 0%, HGF/SF = 100%)” value was 26%.

B17: 1F12_H2L3, full-length human IgG1 (antibody, V domains shown)
VH: B1 VH with S54D
VL: B1 VL with Y51E
For the molecule B17, in assay [2], the “agonist activity … (PBS = 0%, HGF/SF = 100%)” value is 24.5%.
